From patent publication US20130273029A1 (Novartis, published 2013)

Columns and labels:
[1] = biological target: T1, Human HER3, endogenous, on human cancer cell lines (SK-Br-3, MCF7, BT-474) (human, UniProt P21860 20-1342); assay: cell-based or functional assay
[2] = biological target: T1, Human HER3, endogenous, on human cancer …; assay: cell-based or functional assay; remark: listed apart in the source
[3] = biological target: T1, Human HER3, endogenous, on human cancer …; assay: cell-based or functional assay; remark: listed apart in the source
[4] = biological target: T2, Hu HER3: CD33-[Human HER3, residues 20-640]-TAG (human, UniProt P21860 20-640); assay: SET, IgG vs soluble HER3-Tag
T2 construct: also called hu HER3-Tag; HER3-Tag; not shown: C-terminal TAG (e.g., FLAG TAG)
Experimental: Affinity determination in solution was essentially performed as previously described (Friguet et al., (1985) J Immunol Methods 77:305-19). In order to improve the sensitivity and accuracy of the SET method, it was transferred from classical ELISA to ECL based technology (Haenel et al., (2005) Anal Biochem 339:182-84).
The data was evaluated with XLfit software (ID Business Solutions) applying customized fitting models.
Antibody affinity was determined by solution equilibrium titration (SET) as described above. The results are summarized in Table 3 and example titration curves for MOR12616 and MOR12925 are contained in FIG. 1.

T2 sequence (P21860 20-640): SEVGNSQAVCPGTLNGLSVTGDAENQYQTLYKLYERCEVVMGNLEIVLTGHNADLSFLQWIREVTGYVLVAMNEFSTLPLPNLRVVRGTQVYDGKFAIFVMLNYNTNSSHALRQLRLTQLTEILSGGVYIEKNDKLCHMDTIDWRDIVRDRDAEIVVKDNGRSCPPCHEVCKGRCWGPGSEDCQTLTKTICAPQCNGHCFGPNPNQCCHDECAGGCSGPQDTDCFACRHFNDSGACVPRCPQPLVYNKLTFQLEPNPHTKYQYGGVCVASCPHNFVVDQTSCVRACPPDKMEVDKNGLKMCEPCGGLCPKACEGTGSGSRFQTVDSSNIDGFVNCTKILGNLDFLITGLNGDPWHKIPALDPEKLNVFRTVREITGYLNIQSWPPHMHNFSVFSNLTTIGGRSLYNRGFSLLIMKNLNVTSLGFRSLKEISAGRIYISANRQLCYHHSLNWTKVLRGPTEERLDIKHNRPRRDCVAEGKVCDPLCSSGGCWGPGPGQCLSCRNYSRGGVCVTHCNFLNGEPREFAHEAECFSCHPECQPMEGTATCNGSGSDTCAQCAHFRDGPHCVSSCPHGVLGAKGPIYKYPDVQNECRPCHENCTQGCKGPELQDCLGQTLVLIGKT
T1 sequence (P21860 20-1342): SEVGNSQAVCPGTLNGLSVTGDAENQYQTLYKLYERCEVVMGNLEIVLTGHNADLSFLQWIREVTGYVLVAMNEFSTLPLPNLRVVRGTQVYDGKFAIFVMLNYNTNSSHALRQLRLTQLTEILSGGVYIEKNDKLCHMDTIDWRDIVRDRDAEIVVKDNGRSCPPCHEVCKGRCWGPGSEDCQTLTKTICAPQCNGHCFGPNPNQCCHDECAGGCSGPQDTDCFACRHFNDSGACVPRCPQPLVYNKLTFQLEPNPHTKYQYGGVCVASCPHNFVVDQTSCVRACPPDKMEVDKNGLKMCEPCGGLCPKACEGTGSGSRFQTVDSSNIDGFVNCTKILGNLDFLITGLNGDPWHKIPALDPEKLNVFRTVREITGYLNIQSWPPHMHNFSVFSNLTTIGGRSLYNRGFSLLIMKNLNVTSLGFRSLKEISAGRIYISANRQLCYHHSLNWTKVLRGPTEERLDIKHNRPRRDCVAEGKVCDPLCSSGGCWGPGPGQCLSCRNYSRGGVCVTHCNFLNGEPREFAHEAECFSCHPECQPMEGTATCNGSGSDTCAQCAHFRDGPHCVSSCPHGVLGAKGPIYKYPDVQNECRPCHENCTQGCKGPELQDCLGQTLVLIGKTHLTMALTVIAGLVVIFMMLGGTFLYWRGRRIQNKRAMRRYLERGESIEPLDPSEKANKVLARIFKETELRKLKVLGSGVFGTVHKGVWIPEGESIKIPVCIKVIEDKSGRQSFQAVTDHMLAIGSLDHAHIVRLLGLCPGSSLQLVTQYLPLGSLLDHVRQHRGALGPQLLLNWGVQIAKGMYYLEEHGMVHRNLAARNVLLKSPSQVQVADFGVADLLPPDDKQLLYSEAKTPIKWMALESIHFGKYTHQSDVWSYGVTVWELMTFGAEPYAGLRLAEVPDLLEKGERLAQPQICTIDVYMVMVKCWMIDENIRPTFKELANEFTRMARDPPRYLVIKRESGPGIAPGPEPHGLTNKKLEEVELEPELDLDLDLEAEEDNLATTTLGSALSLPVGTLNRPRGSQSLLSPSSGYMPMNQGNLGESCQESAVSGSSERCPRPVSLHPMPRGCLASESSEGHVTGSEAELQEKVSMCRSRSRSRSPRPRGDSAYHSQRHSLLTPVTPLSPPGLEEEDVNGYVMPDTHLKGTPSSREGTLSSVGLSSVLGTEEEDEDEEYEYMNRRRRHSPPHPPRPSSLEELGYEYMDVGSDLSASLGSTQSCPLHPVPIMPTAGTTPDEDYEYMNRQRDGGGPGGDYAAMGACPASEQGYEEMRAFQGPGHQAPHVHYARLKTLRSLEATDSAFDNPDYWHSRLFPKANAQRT

Row | Binder | BT474 pHER3 % inhibition [1] [%] | BT474 pHER3 IC50 [1] [pM] | SK-Br-3 pHER3 % inhibition [1] [%] | SK-Br-3 pHER3 IC50 [1] [pM] | BT-474 pAkt (S473) % inhibition [2] [%] | BT-474 pAkt (S473) IC50 [2] [pM] | SK-Br-3 pAkt (S473) % inhibition [2] [%] | SK-Br-3 pAkt (S473) IC50 [2] [pM] | BT-474 proliferation % inhibition [3] [%] | BT-474 proliferation IC50 [3] [pM] | SK-Br-3 proliferation % inhibition [3] [%] | SK-Br-3 proliferation IC50 [3] [pM] | Kd [4] [pM] | MCF7 pHER3 % inhibition [1] [%] | MCF7 pHER3 IC50 [1] [pM] | MCF7 proliferation % inhibition [3] [%] | MCF7 proliferation IC50 [3] [pM] | MCF7 pAkt (S473) % inhibition [2] [%] | MCF7 pAkt (S473) IC50 [2] [pM]
1 | MOR13752 (antibody, human IgG1, kappa, V domains shown, tested as IgG) VH: QVQLVQSGAEVKKPGESLKISCKGSGYSFTNYWVAWVRQMPGKGLEWMGIIYPGGSDTIYSPSFQGQVTISADKSISTAYLQWSSLKASDTAMYYCARVHIIQPPSAWSYNAMDVWGQGTLVTVSS VL: DIQMTQSPSSLSASVGDRVTITCRASQSISTYLNWYQQKPGKAPKLLIFGASNLQSGVPSRFSGSGSGTDFTLTISSLQPEDFATYYCQQSITELFTFGQGTKVEIKR | 45 | 4240 | 71 | 1000 | 76 | 39100 | 86 | 734 | 22 | 42800 | 40 | 3000 | 96 |  |  |  |  |  | 
2 | MOR12923 (antibody, human IgG1, kappa, V domains shown) VH: QVQLVQSGAEVKKPGESLKISCKGSGYSFTNSWVAWVRQMPGKGLEWMGIIYPGNSDTIYSPSFQGQVTISADKSISTAYLQWSSLKASDTAMYYCARVHIIQPPSAWSYNAMDVWGQGTLVTVSS VL: DIQMTQSPSSLSASVGDRVTITCRASQSISTYLNWYQQKPGKAPKLLIFGASNLQSGVPSRFSGSGSGTDFTLTISSLQPEDFATYYCQQSMYLPFTFGQGTKVEIKR | 61 | 1050 | 74 | 70 |  |  |  |  |  |  | 42 | 62 |  | 83 | 540 | 29 | 266 |  | 
3 | MOR12924 (antibody, human IgG1, kappa, V domains shown) VH: QVQLVQSGAEVKKPGESLKISCKGSGYSFTNSWVAWVRQMPGKGLEWMGIIYPGNSDTIYSPSFQGQVTISADKSISTAYLQWSSLKASDTAMYYCARVHIIQPPSAWSYNAMDVWGQGTLVTVSS VL: DIQMTQSPSSLSASVGDRVTITCRASQSISTYLNWYQQKPGKAPKLLIFGASNLQSGVPSRFSGSGSGTDFTLTISSLQPEDFATYYCQQSVWEPATFGQGTKVEIKR | 62 | 1590 | 76 | 123 |  |  |  |  |  |  | 44 | 533 |  | 80 | 631 | 23 | 497 |  | 
4 | MOR13758 (antibody, human IgG1, kappa, V domains shown, tested as IgG) VH: QVQLVQSGAEVKKPGESLKISCKGSGYSFTLYWVAWVRQMPGKGLEWMGIIYPGQSDTIYSPSFQGQVTISADKSISTAYLQWSSLKASDTAMYYCARVHIIQPPSAWSYNAMDVWGQGTLVTVSS VL: DIQMTQSPSSLSASVGDRVTITCRASQSISTYLNWYQQKPGKAPKLLIFGASNLQSGVPSRFSGSGSGTDFTLTISSLQPEDFATYYCQQSITELFTFGQGTKVEIKR | 67 | 382 | 77 | 91 | 78 | 371 | 90 | 110 | 38 | 516 | 47 | 133 | 21 |  |  |  |  |  | 
5 | MOR13755 (antibody, human IgG1, kappa, V domains shown, tested as IgG) VH: QVQLVQSGAEVKKPGESLKISCKGSGYSFTTYWVAWVRQMPGKGLEWMGIIYPGQSDTIYSPSFQGQVTISADKSISTAYLQWSSLKASDTAMYYCARVHIIQPPSAWSYNAMDVWGQGTLVTVSS VL: DIQMTQSPSSLSASVGDRVTITCRASQSISTYLNWYQQKPGKAPKLLIFGASNLQSGVPSRFSGSGSGTDFTLTISSLQPEDFATYYCQQSITELFTFGQGTKVEIKR | 73 | 657 | 80 | 217 | 79 | 645 | 91 | 131 | 41 | 738 | 52 | 207 | 24 | 79 | 331 |  |  | 79 | 468
6 | MOR13754 (antibody, human IgG1, kappa, V domains shown, tested as IgG) VH: QVQLVQSGAEVKKPGESLKISCKGSGYSFTSYWVAWVRQMPGKGLEWMGIIYPGGSDTIYSPSFQGQVTISADKSISTAYLQWSSLKASDTAMYYCARVHIIQPPSAWSYNAMDVWGQGTLVTVSS VL: DIQMTQSPSSLSASVGDRVTITCRASQSISTYLNWYQQKPGKAPKLLIFGASNLQSGVPSRFSGSGSGTDFTLTISSLQPEDFATYYCQQSITELFTFGQGTKVEIKR | 49 | 3900 | 63 | 606 | 64 |  | 84 | 465 | 17 | 8000 | 40 | 6470 | 290 |  |  |  |  |  | 
7 | MOR13756 (antibody, human IgG1, kappa, V domains shown, tested as IgG) VH: QVQLVQSGAEVKKPGESLKISCKGSGYSFTLTWVAWVRQMPGKGLEWMGIIYPGQSDTIYSPSFQGQVTISADKSISTAYLQWSSLKASDTAMYYCARVHIIQPPSAWSYNAMDVWGQGTLVTVSS VL: DIQMTQSPSSLSASVGDRVTITCRASQSISTYLNWYQQKPGKAPKLLIFGASNLQSGVPSRFSGSGSGTDFTLTISSLQPEDFATYYCQQSITELFTFGQGTKVEIKR | 66 | 322 | 78 | 95 | 86 | 189 | 90 | 107 | 42 | 710 | 50 | 97 | 25 |  |  |  |  |  | 
8 | MOR13750 (antibody, human IgG1, kappa, V domains shown, tested as IgG) VH: QVQLVQSGAEVKKPGESLKISCKGSGYSFTSSWVAWVRQMPGKGLEWMGIIYPGGSDTIYSPSFQGQVTISADKSISTAYLQWSSLKASDTAMYYCARVHIIQPPSAWSYNAMDVWGQGTLVTVSS VL: DIQMTQSPSSLSASVGDRVTITCRASQSISTYLNWYQQKPGKAPKLLIFGASNLQSGVPSRFSGSGSGTDFTLTISSLQPEDFATYYCQQSITELFTFGQGTKVEIKR | 44 | 6680 | 60 | 1440 | 60 | 17800 | 83 | 1640 | 21 | 13800 | 34 | 5470 | 160 |  |  |  |  |  | 
